A word on the Kd: it is the constant that tells how readily two partners part at equilibrium. Low readings indicate higher affinity, high ones lower affinity. For orientation: IC50 means the point on the concentration scale where inhibition reaches its midpoint.

For data set [1], the target named is MSL2-ΔPro/Bas (Drosophila melanogaster) (UniProt P50534). Briefly: EMSA. In general terms: A gel shift assay detects complexes by their altered migration in electrophoresis.
Data set [2] addresses T1, MSL2 (Drosophila melanogaster, UniProt P50534 1-773).
T1 sequence: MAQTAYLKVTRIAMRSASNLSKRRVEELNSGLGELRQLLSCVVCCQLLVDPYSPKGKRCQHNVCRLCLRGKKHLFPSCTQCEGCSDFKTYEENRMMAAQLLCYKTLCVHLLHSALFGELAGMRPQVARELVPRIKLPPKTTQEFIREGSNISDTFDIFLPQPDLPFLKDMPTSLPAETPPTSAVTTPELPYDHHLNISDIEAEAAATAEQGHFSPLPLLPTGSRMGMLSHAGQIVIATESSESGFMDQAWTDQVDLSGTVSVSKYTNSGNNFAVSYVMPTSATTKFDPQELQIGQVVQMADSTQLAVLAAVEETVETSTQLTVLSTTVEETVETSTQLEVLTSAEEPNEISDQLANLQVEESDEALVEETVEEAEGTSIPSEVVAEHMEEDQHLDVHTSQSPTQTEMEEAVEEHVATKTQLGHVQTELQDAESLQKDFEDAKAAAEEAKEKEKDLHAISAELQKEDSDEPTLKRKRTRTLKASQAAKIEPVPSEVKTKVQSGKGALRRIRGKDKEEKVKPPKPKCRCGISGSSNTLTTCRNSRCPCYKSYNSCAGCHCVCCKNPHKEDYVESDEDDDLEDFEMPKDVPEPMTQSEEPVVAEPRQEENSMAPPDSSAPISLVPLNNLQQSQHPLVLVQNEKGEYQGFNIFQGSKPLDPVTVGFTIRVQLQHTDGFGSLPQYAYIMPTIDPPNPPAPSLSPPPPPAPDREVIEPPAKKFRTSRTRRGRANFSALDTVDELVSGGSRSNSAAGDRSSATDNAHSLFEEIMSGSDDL
Briefly: EMSA.

The target in a further data set is T2, MSL2-ΔRING (Drosophila melanogaster, UniProt P50534 1-40+86-773, internal_change).
T2 sequence: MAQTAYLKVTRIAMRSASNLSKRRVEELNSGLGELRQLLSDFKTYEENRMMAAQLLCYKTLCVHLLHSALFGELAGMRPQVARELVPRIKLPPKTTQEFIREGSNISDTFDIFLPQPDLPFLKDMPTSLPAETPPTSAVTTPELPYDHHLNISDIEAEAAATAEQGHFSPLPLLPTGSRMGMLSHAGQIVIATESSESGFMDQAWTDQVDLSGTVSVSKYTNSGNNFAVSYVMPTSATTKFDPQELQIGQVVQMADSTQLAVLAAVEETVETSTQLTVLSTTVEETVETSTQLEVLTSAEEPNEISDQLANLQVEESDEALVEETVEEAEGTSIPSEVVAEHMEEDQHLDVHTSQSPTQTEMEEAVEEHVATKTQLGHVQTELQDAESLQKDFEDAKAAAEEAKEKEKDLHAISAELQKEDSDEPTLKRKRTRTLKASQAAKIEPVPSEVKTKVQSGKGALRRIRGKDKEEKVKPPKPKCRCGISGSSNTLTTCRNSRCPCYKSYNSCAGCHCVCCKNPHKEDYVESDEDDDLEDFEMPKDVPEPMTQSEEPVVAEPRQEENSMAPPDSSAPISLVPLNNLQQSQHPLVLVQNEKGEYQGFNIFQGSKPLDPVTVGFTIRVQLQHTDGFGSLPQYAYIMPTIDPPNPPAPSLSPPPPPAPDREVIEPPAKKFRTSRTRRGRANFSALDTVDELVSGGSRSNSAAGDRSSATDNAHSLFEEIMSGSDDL
The data set can be described thus: EMSA.

Another data set has as its target T3, MSL2-ΔCXC (Drosophila melanogaster, UniProt P50534 1-519+572-773, internal_change).
T3 sequence: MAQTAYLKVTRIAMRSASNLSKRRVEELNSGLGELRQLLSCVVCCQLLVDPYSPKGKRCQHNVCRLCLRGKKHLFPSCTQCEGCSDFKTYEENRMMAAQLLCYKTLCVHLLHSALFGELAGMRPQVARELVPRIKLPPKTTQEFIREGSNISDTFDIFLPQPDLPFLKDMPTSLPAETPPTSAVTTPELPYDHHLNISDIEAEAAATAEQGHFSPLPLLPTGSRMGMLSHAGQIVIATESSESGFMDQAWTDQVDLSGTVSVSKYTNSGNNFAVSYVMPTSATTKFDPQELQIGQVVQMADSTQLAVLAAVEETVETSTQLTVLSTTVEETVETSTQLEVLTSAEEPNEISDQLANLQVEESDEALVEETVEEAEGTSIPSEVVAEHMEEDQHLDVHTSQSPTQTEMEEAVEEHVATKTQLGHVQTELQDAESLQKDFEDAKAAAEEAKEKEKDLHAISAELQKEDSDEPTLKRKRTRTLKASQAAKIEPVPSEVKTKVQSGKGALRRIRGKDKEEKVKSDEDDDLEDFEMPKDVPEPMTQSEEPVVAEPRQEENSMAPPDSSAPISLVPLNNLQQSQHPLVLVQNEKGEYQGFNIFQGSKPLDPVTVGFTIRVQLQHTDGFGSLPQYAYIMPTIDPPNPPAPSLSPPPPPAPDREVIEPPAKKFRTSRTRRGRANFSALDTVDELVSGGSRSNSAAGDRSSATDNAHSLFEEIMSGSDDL
Briefly: EMSA.

For data set [3], the target named is T1, MSL2. The data set can be described thus: competition.

“UGCGGCCAUCUCUUUCGUUUUGAUGUUUCUACGCCAUGUG / CACAUGGCGUAGAAACAUCAAAACGAAAGAGAUGGCCGCA [DBF12-L15 dsRNA 40 bp]” registered a dissociation constant (Kd) in data set [1] of 37 nM.

B1: DBF12-L15 dsRNA 40 bp (dsRNA)
RNA 1: UGCGGCCAUCUCUUUCGUUUUGAUGUUUCUACGCCAUGUG
RNA 2: CACAUGGCGUAGAAACAUCAAAACGAAAGAGAUGGCCGCA
Take B1: the dissociation constant Kd in the data set with MSL2 [2] was 21 ± 4 nM; with MSL2-ΔRING, 23 ± 5 nM; with MSL2-ΔCXC, 29 ± 12 nM. In the data set with MSL2 [3], this molecule returned a concentration for half-maximal inhibition (IC50) of 36 ± 8 nM.

The record behind these values is publication PMC2879509.
